Reference: article PMC10593859 (2023)

Assays:
Ad26 viral particles [1] = assay: SPR; pre-vaccination human serum (1:5) flowed over Ad26 first
Ad26 viral particles [2] = assay: as above; remark: listed apart in the source
Ad26 viral particles [3] = assay: SPR; post-Ad26 vaccination human serum (1:5) flowed over Ad26 first
Ad26 viral particles [4] = assay: as above; remark: listed apart in the source

B1: recombinant human platelet factor 4 (PF4) (natural protein)
chain: EAEEDGDLQCLCVKTTSQVRPRHITSLEVIKAGPHCPTAQLIATLKNGRKICLDLQAPLYKKIIKKLLES
B1 was tested, and the Kd (Ad26 viral particles [1]) was 122 nM, the Kd (Ad26 viral particles [2]) was 233 nM and the Kd (Ad26 viral particles [3]) was 478 nM. It also gave a Kd (Ad26 viral particles [4]) of 612 nM.
